Test results as given in PMC4682653.

System: UvrY-His6 phosphorylated (UvrY-P) (Escherichia coli MG1655)
Test: EMSA
Conditions: in vitro phosphorylated; 20 mM Tris-HCl pH 7.5, 10% glycerol, 50 mM KCl, 3 mM MgCl2, 1 mM DTT, 100 ug/mL BSA, 0.5 nM DNA, 30 min at 37 C (Fig 3 legend: room temperature)

Substance: csrB EMSA probe (-246 to +49)
- binding signal (fold affinity vs non-phosphorylated UvrY): 2

Substance: csrC EMSA probe (-247 to +56)
- binding signal (fold affinity vs non-phosphorylated UvrY): 2
